Legend:
Assay in all cases: Kd (EC50 corrected by depletion factor)
[1] = target: T1, MEX3D (UniProt Q86XN8)
T1 sequence: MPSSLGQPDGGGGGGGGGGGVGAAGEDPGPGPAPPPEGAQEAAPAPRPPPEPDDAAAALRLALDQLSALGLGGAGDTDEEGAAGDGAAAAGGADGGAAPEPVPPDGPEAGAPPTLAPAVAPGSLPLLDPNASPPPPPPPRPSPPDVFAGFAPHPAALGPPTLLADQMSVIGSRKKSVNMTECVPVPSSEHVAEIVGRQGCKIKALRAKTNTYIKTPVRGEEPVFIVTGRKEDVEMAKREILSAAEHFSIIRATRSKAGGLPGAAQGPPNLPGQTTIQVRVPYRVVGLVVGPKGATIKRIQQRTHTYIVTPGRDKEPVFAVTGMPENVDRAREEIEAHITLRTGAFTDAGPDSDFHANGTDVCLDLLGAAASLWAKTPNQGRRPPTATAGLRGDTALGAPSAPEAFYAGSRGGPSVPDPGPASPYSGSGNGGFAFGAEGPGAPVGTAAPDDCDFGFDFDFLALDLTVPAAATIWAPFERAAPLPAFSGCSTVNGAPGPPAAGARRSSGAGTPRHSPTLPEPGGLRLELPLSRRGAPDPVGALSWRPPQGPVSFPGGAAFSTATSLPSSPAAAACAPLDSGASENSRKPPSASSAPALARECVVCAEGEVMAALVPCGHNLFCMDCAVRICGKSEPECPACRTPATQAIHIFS
Summary of the method: (§1)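 Kd was calculated as EC50, taken from a four-parameter log-logistic fit, multiplied by a protein-dependent depletion factor. The assay used HEK293-FT lysate (2.5 mg protein/well) pre-incubated for 1 h at 4°C with free RNA oligos (0 nM to 30 μM), then incubated for 30 min at 4°C with the matching oligos bound through a 5′-amino-C6 linker to NHS-Sepharose beads. Bound proteins were measured by label-free LC-MS/MS and normalised to the control.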

[2] = target: T2, ERAL1 (UniProt O75616)
T2 sequence: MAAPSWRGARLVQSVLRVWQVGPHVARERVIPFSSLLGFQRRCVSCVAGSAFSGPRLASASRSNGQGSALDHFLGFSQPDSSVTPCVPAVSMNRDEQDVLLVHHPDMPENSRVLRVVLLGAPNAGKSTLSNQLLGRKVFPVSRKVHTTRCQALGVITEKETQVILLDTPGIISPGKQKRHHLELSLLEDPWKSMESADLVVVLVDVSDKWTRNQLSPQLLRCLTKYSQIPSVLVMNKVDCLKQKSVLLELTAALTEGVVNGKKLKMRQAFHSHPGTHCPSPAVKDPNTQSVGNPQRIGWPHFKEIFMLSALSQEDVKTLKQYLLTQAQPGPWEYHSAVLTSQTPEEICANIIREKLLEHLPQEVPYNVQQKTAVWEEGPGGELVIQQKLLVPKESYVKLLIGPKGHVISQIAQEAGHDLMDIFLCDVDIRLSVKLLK
Summary of the method: as §1

[3] = target: T3, PRPF3 (UniProt O43395)
T3 sequence: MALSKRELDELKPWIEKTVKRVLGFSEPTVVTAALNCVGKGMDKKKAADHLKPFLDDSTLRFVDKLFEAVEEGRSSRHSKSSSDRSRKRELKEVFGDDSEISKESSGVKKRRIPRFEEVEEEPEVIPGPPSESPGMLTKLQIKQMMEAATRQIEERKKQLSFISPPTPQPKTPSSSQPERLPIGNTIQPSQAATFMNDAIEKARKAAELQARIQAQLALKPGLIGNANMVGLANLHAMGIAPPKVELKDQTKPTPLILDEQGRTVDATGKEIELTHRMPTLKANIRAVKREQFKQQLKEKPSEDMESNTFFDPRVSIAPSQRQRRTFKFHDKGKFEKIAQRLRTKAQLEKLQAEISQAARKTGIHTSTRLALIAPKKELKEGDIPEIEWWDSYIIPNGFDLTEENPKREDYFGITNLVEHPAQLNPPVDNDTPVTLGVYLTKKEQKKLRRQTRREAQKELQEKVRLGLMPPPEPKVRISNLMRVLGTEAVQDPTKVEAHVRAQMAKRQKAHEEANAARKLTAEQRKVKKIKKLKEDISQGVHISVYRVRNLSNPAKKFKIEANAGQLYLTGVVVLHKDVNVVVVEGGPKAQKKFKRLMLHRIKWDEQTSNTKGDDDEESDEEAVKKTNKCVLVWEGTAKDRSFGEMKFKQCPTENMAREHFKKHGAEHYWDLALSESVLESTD
Summary of the method: as §1

[4] = target: MRPS27 (UniProt Q92552)
Summary of the method: as §1

[5] = target: RPS25 (UniProt P62851)
Summary of the method: as §1

[6] = target: CSNK2B (UniProt P67870)
Chain of CSNK2B (P67870 whole entry): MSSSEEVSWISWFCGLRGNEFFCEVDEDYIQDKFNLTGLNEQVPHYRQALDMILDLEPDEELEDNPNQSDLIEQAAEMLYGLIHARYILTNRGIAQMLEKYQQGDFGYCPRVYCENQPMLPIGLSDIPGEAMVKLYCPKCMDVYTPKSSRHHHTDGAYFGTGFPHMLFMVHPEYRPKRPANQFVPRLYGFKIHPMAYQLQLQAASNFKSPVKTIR
Summary of the method: as §1

[7] = target: T4, ZGPAT (UniProt Q8N5A5)
T4 sequence: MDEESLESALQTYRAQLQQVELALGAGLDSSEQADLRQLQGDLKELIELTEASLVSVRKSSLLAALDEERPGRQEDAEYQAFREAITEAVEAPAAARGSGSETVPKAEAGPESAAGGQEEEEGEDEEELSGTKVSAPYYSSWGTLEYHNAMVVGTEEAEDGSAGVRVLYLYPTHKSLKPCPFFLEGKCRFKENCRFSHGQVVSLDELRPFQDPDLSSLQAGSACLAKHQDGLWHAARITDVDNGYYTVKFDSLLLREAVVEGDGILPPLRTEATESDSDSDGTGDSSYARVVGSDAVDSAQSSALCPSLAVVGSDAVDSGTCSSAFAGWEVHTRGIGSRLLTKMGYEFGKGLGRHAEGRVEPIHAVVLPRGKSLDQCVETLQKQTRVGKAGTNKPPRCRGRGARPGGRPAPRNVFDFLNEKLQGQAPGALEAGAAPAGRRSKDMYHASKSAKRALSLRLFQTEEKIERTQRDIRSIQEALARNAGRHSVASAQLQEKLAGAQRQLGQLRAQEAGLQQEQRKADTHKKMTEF
Summary of the method: as §1

What does the source list for UAUUUAU?
Kd [1]: 465 nM; Kd [2]: 25.5 nM; Kd [3]: 2670 nM; Kd [4]: 49.8 nM

Which Kd [5] does the source give for CUGUCCU here?
The Kd was 25.2 nM.

What does the source list for AAUAAA?
Kd [6]: 2220 nM; Kd [7]: 4390 nM

— the supplement of paper PMC6379048
